The results in this text go back to patent publication US20250297282A1.

The target of the assay is GFP-encoding lentiviral particles.

As for “StrepTactin Superflow column (0.2 mL resin bed, 3 mg binding capacity per mL; IBA Lifesciences GmbH)”, the GFP+ cells (gate over CD8- and CD8+ cells) among T cells five days after transduction with the biotin elution fraction of the column without VBP (-VB), by flow cytometry was found to be 0.069%.
